Data taken from patent US6303317A, “Peptide probes and methods for making the same” (The Regents of the University of California, priority 1998, dated 2001).
Read-outs that look alike come from different tables or passages of the source. Where no end group is shown, it is not given here. [ ]: non-standard residue; d: D form. biotin (long spacer arm) = biotin with long spacer arm, attached via N-hydroxysuccinimidyl ester of biotin; Nle = CCCC[C@H](N)C(=O)O

Columns and labels:
APC-55 = target: T1, APC-55 (Homo sapiens, UniProt P25054); test: Fluorescence energy transfer titration (dissociation constant of heterodimer); assay type: binding
T1 construct: APC-55, a peptide corresponding to amino acids 2-55 of human APC; made in house; host or cells: E. coli BL21 (DE3), pAED4 plasmid
T1 sequence (P25054 2-55): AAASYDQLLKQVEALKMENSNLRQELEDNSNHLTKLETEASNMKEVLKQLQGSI
Protocol: Based on the sensitivity of the fluorescence method used, the dissociation constant of the APC-55/Anti-APCp2 heterodimer was estimated to be less than 10 nM. […] Because the amino-terminal, coiled coil sequence targeted by anti-APCp1 occurs in tumor-associated truncation mutants, the distinct electrophoretic mobilities of the species detected by the antisense peptide distinguish wild-type from tumorigenic APC variants (FIG. 9).

[1] = target: T2, N-terminal APC coiled coil (APC-55) (Homo sapiens, UniProt P25054); test: Thermal denaturation followed by circular dichroism at 222 nm (apparent Tm); assay type: physicochemical; conditions: for Apparent Tm: 10 mM phosphate pH 7.0 and 100 mM potassium flouride, midpoint of CD thermal denaturation at 222 nm
T2 construct: APC-55, a peptide corresponding to amino acids 2-55 of human APC; made in house; host or cells: E. coli BL21 (DE3), pAED4 plasmid
T2 sequence (P25054 2-55): T1 sequence (P25054 2-55)
Protocol: Circular dischroism investigations are well known in the art. For example, such an investigation may be performed using a 1 cm or 1 mm cuvette (Helma or Uvonic) on an Aviv CD spectrophotometer (model 60DS or model 62DS) equipped with a thermoelectric controller. The buffer used for all CD experiments except pH titrations is 100 mM KF, 10 mM potassium phosphate (pH 7.0). All peptide concentrations may be determined by tyrosine absorbance at 275.5 nm in 6.0 M GuHCl PH 6.5 (Schwarz/Mann Biotech Ultra-Pure grade) using an Aviv UV/VIS spectrophotometer (model 1 BDS or 14 DS). The molar ellipticity at 222 nm, 5° C., is measured for the homo- and heterodimers. The CD values (i.e., deg cm^2 and dmol^-1) indicate % helicity of the peptides. Thermal melting curves are determined by monitoring the CD signal at 222 nm as a function of temperature. The pH dependence of stability may be measured in 100 mM KF, 10 mM potassium phosphate at various pH values. GuHCl (Schwarz/Mann Biotech Ultra-Pure grade) (e.g., 2M) may be included in the buffer used for monitoring the pH dependence of stability. pH stability is indicated if the same overall shape of the pH dependence curve is obtained in the absence as well as the presence of GuHCl. It is also desirable to determine the reversibility for all thermal melts. The absence of reversibility of a melting curve above a certain pH value indicates chemical modification and/or degradation of the polypeptide. Such modification and/or degradation may be confirmed using HPLC.
Thermal denaturation is used to determine Tm. The term "Tm " refers to the temperature at which the fraction of a polypeptide which is unfolded is equal to the fraction folded (ΔG=0). The Tm is determined by curve fitting a thermal denaturation curve (described supra) to an equation known in the art (see, O'Shea et al (1992) Cell 68:699-708) using a nonlinear least squares-fitting program (e.g., Kaledagraph, Synergy Software). Alternatively, the Tm for each polypeptide may also be determined by taking the first derivative of the CD signal (β) with respect to temperature^-1 (temperature in K) and finding the minimum of this function (Cantor and Schimmel, 1980). Similarly, denaturation induced by additives such as urea or GuHCl can be followed by circular dichroism. These measurements can yield the Cm, i.e., the denaturant concentration where ΔG=0. Linear extrapolation of the transition to zero denaturant can yield the equilibrium constant in aqueous buffer. This can be converted to a free energy of association using the formula ΔG=--RTlnK [Cantor and Schimmel (1980) supra).
CD spectra (180-300 nm) for the APC-55 and anti-APCp1 peptides alone and in combination were recorded in a 1 mm quartz cuvette at 5° C. using an Aviv 62DS circular dichroism spectrophotometer. The concentrations of peptide stocks were determined optically by the method of Gill and vonHippel, Anal. Biochem 182:319-326 (1989). Peptide stocks were diluted in 10 mM KPO4, 100 mM KF, pH 7.0. Thermal denaturations were carried out in steps of 1-3° C. with 2 minutes for equilibration and one minute for data averaging. Thermal transitions were >95% reversible. The results in FIGS. 3 and 4 obtained with the APC-55 alone are shown by open circles (.largecircle.), with the anti-APCp1 alone by squares (.quadrature.), and with an equimolar mixture of APC-55 and anti-APCp1 with closed circles (.circle-solid.).

[2] = target: GST-APC-H1-4 (GST fused to the N-terminal 373 amino acids of the APC protein, heptad repeats 1-4) (human, UniProt P08515 = GST); test: Western blot of bacterial lysates, 5 nM biotinylated peptide, streptavidin-HRP
Protocol: (§1) Bacterial lysates containing GST, GST-APC-H1, GST-APC-H1-4 and GST-APC-probe were diluted 1:10 in cell lysates from induced BL21 cells containing no APC sequences and adjusted to a final protein concentration of 0.5 mg/ml in sample buffer. Five micrograms of each sample was electrophoresed on a precast 10% Tricine-SDS polyacrylamide gel (Novex) as described by Schager and von-Jagow (1987). Proteins were transferred to 0.45 micron nitrocellulose for 2 hours at 100 V, 4° C., in transfer buffer (25 mM Tris, 192 mM glycine, 20% methanol, 0.1% SDS).
(§2) The anti-APCp1 peptide was biotinylated by removing the F-moc protecting group from the N-terminus of the peptide on the synthesis resin and incubating the resin with the N-hydroxy-succinimidyl ester of biotin containing a long spacer arm (Pierce, Catalog #21336) in dimethylformamide. The biotinylated anti-APCp1 contains Met (instead of Nrl) as well as an additional Leu8Val mutation and Glu-Asp-Glu (wild-type APC sequence) at the peptide C-terminus. This probe was indistinguishable from anti-APCp1 in native gel experiments and CD experiments (data not shown). Blots were blocked for 1 hour in PNT buffer (10 mM phosphate, pH 8.0, 175 mM NaCl, 0.1% Tween-20) containing 0.5% bovine serum albumin. After blocking, blots were probed for I hour at 42° C. with 5 nM biotinylated antiAPC peptide in PNT buffer containing 1% BSA. […]

[3] = target: GST-APC-H1 (GST fused to the first 55 amino acids of the human APC protein, heptad repeat 1) (human, UniProt P08515 = GST); test: as above
Protocol: as §1, §2

[4] = target: T3, APC-55, a peptide corresponding to amino acids 2-55 of human APC (human); test: fluorescence energy transfer titration
T3 peptide: T1 sequence (P25054 2-55)

[5] = target: T3, APC-55, a peptide corresponding to …; test: thermal denaturation by CD, equimolar mixture, 8.0 µM
[6] = target: T3, APC-55, a peptide corresponding to …; test: thermal denaturation by CD, equimolar mixture, 75.0 µM
[7] = target: T3, APC-55, a peptide corresponding to …; test: thermal denaturation by CD, equimolar mixture, 20.0 µM
[8] = target: T3, APC-55, a peptide corresponding to …; test: thermal stability at 20 µM peptide in PBS (pH 7.0), mixture
[9] = target: T3, APC-55, a peptide corresponding to …; test: thermal denaturation followed by circular dichroism at 222 nm
Protocol: (§3) CD spectra (180–300 nm) for the APC-55 and anti-APCp1 peptides alone and in combination were recorded in a 1 mm quartz cuvette at 5° C. using an Aviv 62DS circular dichroism spectrophotometer. The concentrations of peptide stocks were determined optically by the method of Gill and vonHippel, *Anal. Biochem* 182:319–326 (1989). Peptide stocks were diluted in 10 mM KPO_4, 100 mM KF, pH 7.0. Thermal denaturations were carried out in steps of 1–3° C. with 2 minutes for equilibration and one minute for data averaging. Thermal transitions were >95% reversible. The results in FIGS. 3 and 4 obtained with the APC-55 alone are shown by open circles (○), with the anti-APCp1 alone by squares (□), and with an equimolar mixture of APC-55 and anti-APCp1 with closed circles (●).

[10] = thermal denaturation by CD at 222 nm, peptide alone (homo-oligomer), 20.0 µM
[11] = target: T3, APC-55, a peptide corresponding to …; test: thermal denaturation by CD at 222 nm, equimolar mixture, 75.0 µM
Protocol: as §3

[12] = thermal denaturation by CD at 222 nm, peptide alone (homo-oligomer), 75.0 µM
[13] = thermal stability at 20 µM peptide in PBS (pH 7.0), peptide alone
[14] = thermal denaturation by CD at 222 nm, peptide alone (homo-oligomer), 8.0 µM
[15] = target: T3, APC-55, a peptide corresponding to …; test: thermal denaturation by CD at 222 nm, equimolar mixture, 8.0 µM
Protocol: as §3

[16] = target: T3, APC-55, a peptide corresponding to …; test: native acrylamide gel electrophoresis, judged by the sensitivity of detection
Protocol: Native acrylamide gel electrophoresis was used as a direct test of heterodimer specificity. Samples of the individual peptides and an equimolar mixture of the peptides were prepared at 0.6 mM and diluted two-fold in 0.2% (w/v) methyl green, 20% glycerol, 750 mM beta-alanine acetate pH 6.0. Gels contained a separating gel of 7.5% acrylamide in 375 mM beta-alanine acetate, pH 4.0. Samples were run for 2.5 hours at 100 volts, and the gels were fixed with 2% glutaraldehyde and stained for at least 1 hour in 0.2% Coomassie Brilliant Blue in 50% methanol, 10% acetic acid (v/v). Destaining was carried out overnight in the same solvent lacking the dye.
The data presented herein was surprising in view of the prior art reports of the sufficiency of e':g interactions for dimerization specificity of coiled coil proteins [O'Shea et al. (1992), supra; O'Shea et al. (1993) supra; Krylov et al (1994) EMBO J. 13:2849–2861].

[17] = target: T3, APC-55, a peptide corresponding to …; test: thermal denaturation by CD at 222 nm, equimolar mixture, 20.0 µM
Protocol: as §3

coumarin-labeled APC-55 = target: T4, coumarin-labeled APC-55 (human, coumarin label (site not stated)); test: fluorescence energy transfer measurements
T4 peptide: T1 sequence (P25054 2-55)

[18] = thermal denaturation by CD, peptide alone, 20.0 µM
[19] = thermal denaturation by CD, peptide alone, 8.0 µM
[20] = thermal denaturation by CD, peptide alone, 75.0 µM

[Nle]AAKGDQLKKEVEALEYENSNLRKKLEDHKKKLTKLKTEISNAKK[Nle]LKQLYASI [anti-APCp2]
Kd (APC-55; estimated from the sensitivity of the fluorescence method, read-out: dissociation constant of the APC-55/Anti-APCp2 heterodimer): < 10 nM

MAAKGDQLKKEVEALEYENSNLRKKLEDHKKKLTKLKTEISNAKKMLKQLYASI [anti-APCp1]
Kd (APC-55; fluorescein- and coumarin-labeled anti-APCp1 and APC-55, data not shown, read-out: Kd of the heterodimer (upper limit)): ≤ 10 nM

APC-55: peptide corresponding to amino acids 2-55 of human APC; target coiled coil; MAAASYDQLLKQVEALKMENSNLRQELEDNSNHLTKLETEASNMKEVLKQLQGSI
Apparent Tm (+/- 1.25° C.) ([1]; 8.0 μM peptide (Table 9)): 36.3 °C | Apparent Tm ([1]; 8.0 μM peptide): 36.3 °C | Apparent Tm (+/- 1.25° C.) ([1]; 20.0 μM peptide (Table 9)): 40.0 °C | Tm (thermal stability) ([1]; 20 μM peptide concentration in PBS (pH 7.0)): 40.0 °C | Apparent Tm ([1]; 20.0 μM peptide): 40.0 °C | Apparent Tm (+/- 1.25° C.) ([1]; 75.0 μM peptide (Table 9)): 46.5 °C | Apparent Tm ([1]; 75.0 μM peptide): 46.5 °C

B1: biotinylated anti-APCp1 (contains Met instead of Nrl, an additional Leu8Val mutation and Glu-Asp-Glu at the peptide C-terminus) (designed binder)
peptide: {biotin (long spacer arm)}-MAAKGDQVKKEVEALEYENSNLRKKLEDHKKKLTKLKTEISNAKKMLKQLYASIEDE
binding result [2]: binds | binding result [3]: binds

B2: anti-APCp2 polypeptide probe (designed binder)
peptide: [Nle]AAKGDQLKKEVEALEYENSNLRKKLEDHKKKLTKLKTEISNAKK[Nle]LKQLYASI
Kd [4]: < 10 nM | Apparent Tm [5]: 52.9 ° C. | Apparent Tm [6]: 63.6 ° C. | Apparent Tm [7]: 57.5 ° C. | Tm [8]: 57.5 ° C.

B3: anti-APCp1 polypeptide probe (designed binder)
peptide: MAAKGDQLKKEVEALEYENSNLRKKLEDHKKKLTKLKTEISNAKKMLKQLYASI
increase in the thermal melting transition [9]: > 10 ° C. | Apparent Tm [10]: 52.3 ° C. | Apparent Tm [11]: 64.7 ° C. | Apparent Tm [12]: 59.6 ° C. | Tm [13]: 52.3 ° C. | Apparent Tm [14]: 45 ° C. | Apparent Tm [15]: 50.6 ° C. | preference for heterodimer over homodimers (fold) [16]: ≥ 100 fold | Tm [8]: 54.3 ° C. | Apparent Tm [17]: 54.3 ° C.

B4: fluorescein-labeled anti-APCp1 (designed binder)
peptide: B3 peptide
modifications: also: fluorescein label (site not given here)
Kd (coumarin-labeled APC-55): ≤ 10 nM

B5: APC-55, a peptide corresponding to amino acids 2-55 of human APC (protein)
chain: T1 sequence (P25054 2-55)
Apparent Tm [10]: 40 ° C. | Apparent Tm [18]: 40 ° C. | Apparent Tm [12]: 46.5 ° C. | Tm [13]: 40 ° C. | Apparent Tm [14]: 36.3 ° C. | Apparent Tm [19]: 36.3 ° C. | Apparent Tm [20]: 46.5 ° C.
